Measured values published in paper PMC11283454.

Test system: hATE1 WT (human)
Test: EMSA

Q: For tRNAArg acceptor arm, which Kd is on record?
A: Its Kd is 1600 nM.
